Reference: patent publication US20210347873A1 (SHANGHAI PHARMAEXPLORER, published 2021)
Values belong to the molecule of their own block, whether it stands above or below them.

Legend:
[1] = biological target: hBLyS-ECD (His-tagged extracellular domain of human BLyS protein, Ala134-Leu285) (human) (UniProt Q9Y275); experiment: cell-based or functional assay
[2] = biological target: human BLyS (full length, arginine to histidine at position 132) on CHO-K1 cells (human) (UniProt Q9Y275); experiment: flow cytometry, CHO-K1 hBLyS cells, antibody 2.67 nM
Chain of human BLyS (full length, arginine to histidine at position 132) on CHO-K1 cells (human) (Q9Y275 whole entry R130H): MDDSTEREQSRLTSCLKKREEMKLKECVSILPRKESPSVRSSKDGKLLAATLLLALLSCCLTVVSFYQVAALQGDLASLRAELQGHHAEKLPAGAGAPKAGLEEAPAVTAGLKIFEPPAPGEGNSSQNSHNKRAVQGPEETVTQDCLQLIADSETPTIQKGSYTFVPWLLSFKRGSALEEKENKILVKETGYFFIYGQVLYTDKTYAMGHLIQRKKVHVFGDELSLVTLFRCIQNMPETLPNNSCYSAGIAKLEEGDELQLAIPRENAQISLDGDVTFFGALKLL

[3] = biological target: cynomolgus BLyS (full length, arginine to histidine at position 132) on CHO-K1 cells (cynomolgus); experiment: flow cytometry, CHO-K1 cynoBLyS cells, antibody 2.67 nM
Chain of cynomolgus BLyS (full length, arginine to histidine at position 132) on CHO-K1 cells (cynomolgus) (Q9Y275 other isoform, or with tags, fused parts or gaps limits assumed): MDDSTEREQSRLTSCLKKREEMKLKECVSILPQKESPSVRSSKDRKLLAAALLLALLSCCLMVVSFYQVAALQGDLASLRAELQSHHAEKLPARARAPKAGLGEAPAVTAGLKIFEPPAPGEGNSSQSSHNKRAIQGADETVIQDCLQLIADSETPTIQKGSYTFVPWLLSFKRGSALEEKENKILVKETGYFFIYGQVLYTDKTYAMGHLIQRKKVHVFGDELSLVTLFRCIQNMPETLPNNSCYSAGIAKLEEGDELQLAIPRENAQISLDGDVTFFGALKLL

[4] = biological target: His-tagged extracellular domain of human BLyS protein (hBLyS-ECD), Ala134-Leu285 (human) (UniProt Q9Y275); experiment: cell-based or functional assay
[5] = biological target: extracellular domain of human BLyS protein (hBLyS-ECD), His-tagged, Ala134-Leu285 (human) (UniProt Q9Y275); experiment: cell-based or functional assay
[6] = biological target: biotinylated hBLyS-ECD (human) (UniProt Q9Y275); experiment: ELISA on captured biotinylated hBLyS-ECD; control antibody 13.3 nM
[7] = biological target: biotinylated hBLyS-ECD (human) (UniProt Q9Y275); experiment: ELISA on captured biotinylated hBLyS-ECD; control antibody 66.7 nM
[8] = biological target: biotinylated hBLyS-ECD (human) (UniProt Q9Y275); experiment: ELISA on captured biotinylated hBLyS-ECD; control antibody 0.0213 nM
[9] = biological target: biotinylated hBLyS-ECD (human) (UniProt Q9Y275); experiment: ELISA on captured biotinylated hBLyS-ECD; control antibody 0.00427 nM
[10] = biological target: biotinylated hBLyS-ECD (human) (UniProt Q9Y275); experiment: ELISA on captured biotinylated hBLyS-ECD; control antibody 0 nM (background)
[11] = biological target: biotinylated hBLyS-ECD (human) (UniProt Q9Y275); experiment: BAFF R-coated ELISA, biotinylated hBLyS-ECD bound in presence of control antibody 4 nM
[12] = biological target: biotinylated hBLyS-ECD (human) (UniProt Q9Y275); experiment: BAFF R-coated ELISA, biotinylated hBLyS-ECD bound in presence of control antibody 20 nM
[13] = biological target: biotinylated hBLyS-ECD (human) (UniProt Q9Y275); experiment: BAFF R-coated ELISA, biotinylated hBLyS-ECD bound in presence of control antibody 0.8 nM
[14] = biological target: biotinylated hBLyS-ECD (human) (UniProt Q9Y275); experiment: BAFF R-coated ELISA, biotinylated hBLyS-ECD bound in presence of control antibody 100 nM
[15] = biological target: biotinylated hBLyS-ECD (human) (UniProt Q9Y275); experiment: as above; remark: listed apart in the source
[16] = biological target: biotinylated hBLyS-ECD (human) (UniProt Q9Y275); experiment: BAFF R-coated ELISA, biotinylated hBLyS-ECD bound in presence of control antibody 0.16 nM
[17] = biological target: biotinylated hBLyS-ECD (human) (UniProt Q9Y275); experiment: as above; remark: listed apart in the source
[18] = biological target: biotinylated hBLyS-ECD (human) (UniProt Q9Y275); experiment: BAFF R-coated ELISA, biotinylated hBLyS-ECD bound in presence of control antibody 0.032 nM
[19] = biological target: biotinylated hBLyS-ECD (human) (UniProt Q9Y275); experiment: as above; remark: listed apart in the source
[20] = biological target: biotinylated hBLyS-ECD (human) (UniProt Q9Y275); experiment: BAFF R-coated ELISA, biotinylated hBLyS-ECD bound in presence of control antibody 0.0064 nM
[21] = biological target: T1, biotinylated hBLyS-ECD (human, UniProt Q9Y275 134-285, biotinylated with Biotin-X-X-NHS (molar ratio 7:1); sites not stated); experiment: ELISA on captured biotinylated hBLyS-ECD; antibody 13.3 nM
T1 construct: also called biotinylated immunogen; biotinylated hBLvS-ECD

[22] = biological target: T1, biotinylated hBLyS-ECD; experiment: ELISA on captured biotinylated hBLyS-ECD; antibody 66.7 nM
[23] = biological target: T1, biotinylated hBLyS-ECD; experiment: ELISA on captured biotinylated hBLyS-ECD; antibody 0 nM (background)
[24] = biological target: T1, biotinylated hBLyS-ECD; experiment: as above; remark: listed apart in the source
[25] = biological target: extracellular domain of human BLyS protein (hBLyS-ECD), His-tagged, Ala134-Leu285 (human, UniProt Q9Y275 134-285); experiment: cell-based or functional assay

mouse B lymphocyte proliferation (OD450 nm), antibody 0 nM [1]: 2730 OD450 nm
mouse B lymphocyte proliferation (OD450 nm), antibody 0.000256 nM [1]: 3130 OD450 nm
mouse B lymphocyte proliferation (OD450 nm), antibody 0.00128 nM [1]: 3880 OD450 nm
mouse B lymphocyte proliferation (OD450 nm), antibody 0.0064 nM [1]: 3700 OD450 nm
mouse B lymphocyte proliferation (OD450 nm), antibody 0.032 nM [1]: 4010 OD450 nm
mouse B lymphocyte proliferation (OD450 nm), antibody 0.16 nM [1]: 4020 OD450 nm
mouse B lymphocyte proliferation (OD450 nm), antibody 0.8 nM [1]: 3950 OD450 nm
mouse B lymphocyte proliferation (OD450 nm), antibody 4 nM [1]: 3100 OD450 nm
mouse B lymphocyte proliferation (OD450 nm), antibody 20 nM [1]: 2590 OD450 nm
mouse B lymphocyte proliferation (OD450 nm), antibody 100 nM [1]: 3400 OD450 nm
MFI [2]: 31 MFI
MFI [3]: 21.2 MFI
Molecule: mIgG Control (antibody)

IgA Conc. in mouse serum, mice given hBLyS-ECD and antibody (in vivo neutralisation) [4]: 387 µg/mL
Proportion of B lymphocytes in splenocytes (%), mice given hBLyS-ECD and antibody (in vivo neutralisation) [4]: 39.7%
OD450 nm (as headed), mouse B lymphocyte proliferation; control antibody 0 nM [5]: 4390
OD450 nm (as headed), mouse B lymphocyte proliferation; control antibody 0.000256 nM [5]: 4940
OD450 nm (as headed), mouse B lymphocyte proliferation; control antibody 0.00128 nM [5]: 4690
OD450 nm (as headed), mouse B lymphocyte proliferation; control antibody 0.0064 nM [5]: 5070
OD450 nm (as headed), mouse B lymphocyte proliferation; control antibody 0.032 nM [5]: 5120
OD450 nm (as headed), mouse B lymphocyte proliferation; control antibody 0.16 nM [5]: 5370
OD450 nm (as headed), mouse B lymphocyte proliferation; control antibody 0.8 nM [5]: 5040
OD450 nm (as headed), mouse B lymphocyte proliferation; control antibody 4 nM [5]: 5100
OD450 nm (as headed), mouse B lymphocyte proliferation; control antibody 20 nM [5]: 4930
OD450 nm (as headed), mouse B lymphocyte proliferation; control antibody 100 nM [5]: 4880
Proportion of B lymphocytes in splenocytes (%), in vivo in mice [5]: 51%
MFI [2]: 33.1 MFI
MFI [3]: 22.7 MFI
OD450 nm [6]: 0.072 OD450 nm
OD450 nm [7]: 0.144 OD450 nm
OD450 nm [8]: 0.0887 OD450 nm
OD450 nm [9]: 0.121 OD450 nm
OD450 nm [10]: 0.0731 OD450 nm
OD450 nm [11]: 1.87 OD450 nm
OD450 nm [12]: 2.01 OD450 nm
OD450 nm [13]: 1.83 OD450 nm
OD450 nm [14]: 2.2 OD450 nm
OD450 nm [15]: 1.87 OD450 nm
OD450 nm [16]: 2.04 OD450 nm
OD450 nm [17]: 1.79 OD450 nm
OD450 nm [18]: 1.99 OD450 nm
OD450 nm [19]: 1.84 OD450 nm
OD450 nm [20]: 2.01 OD450 nm
Molecule: hIgG Control (antibody)
mouse B lymphocyte proliferation stimulated by hBLyS-ECD (viable cell signal) at 0 nM antibody (OD450 nm (as headed)) [4]: 3570
mouse B lymphocyte proliferation stimulated by hBLyS-ECD (viable cell signal) at 0.000256 nM antibody [4]: 3970
mouse B lymphocyte proliferation stimulated by hBLyS-ECD (viable cell signal) at 0.00128 nM antibody (OD450 nm (as headed)) [4]: 3860
mouse B lymphocyte proliferation stimulated by hBLyS-ECD (viable cell signal) at 0.0064 nM antibody (OD450 nm (as headed)) [4]: 3730
mouse B lymphocyte proliferation stimulated by hBLyS-ECD (viable cell signal) at 0.032 nM antibody (OD450 nm (as headed)) [4]: 3920
mouse B lymphocyte proliferation stimulated by hBLyS-ECD (viable cell signal) at 0.16 nM antibody (OD450 nm (as headed)) [4]: 4200
mouse B lymphocyte proliferation stimulated by hBLyS-ECD (viable cell signal) at 0.8 nM antibody (OD450 nm (as headed)) [4]: 4290
mouse B lymphocyte proliferation stimulated by hBLyS-ECD (viable cell signal) at 4 nM antibody (OD450 nm (as headed)) [4]: 4430
mouse B lymphocyte proliferation stimulated by hBLyS-ECD (viable cell signal) at 20 nM antibody (OD450 nm (as headed)) [4]: 4700
mouse B lymphocyte proliferation stimulated by hBLyS-ECD (viable cell signal) at 100 nM antibody (OD450 nm (as headed)) [4]: 3720

OD450 nm [21]: 2.37 OD450 nm
OD450 nm [22]: 2.32 OD450 nm
OD450 nm [23]: 0.0918 OD450 nm
OD450 nm [24]: 0.322 OD450 nm
B1: c8E7D9C7F5 (antibody, V domains shown)
VH: QVQLQQSGVELARPGASVKLSCKASGYTFTSYGISWVKQRTGQALEWIGEIYPRSGNTYYNEKFKGKATLTADKSSSTAYMELRSLTSEDSAVYFCARSGPITTLVATDYGMDYWGQGTSVTVSS
VL: DIVLTQSPASLAVSLGQRATISCRASKSVSTSSYSYMHWYQQKPGQPPKLLIKFASNLESGVPARFSGSGSGTDFTLNIHPVEEEDAATYYCQHSREFPYTFGGGTKLEIK
notes: also called chimeric antibody c8E7D9C7F5

Proportion of B lymphocytes in splenocytes (%), in vivo in mice [25]: 24.1%
OD450 nm [21]: 2.34 OD450 nm
OD450 nm [22]: 2.41 OD450 nm
OD450 nm [23]: 0.122 OD450 nm
OD450 nm [24]: 0.165 OD450 nm
B2: c97A3C2H4 (antibody, V domains shown)
VH: EVKLVESGGGLVQPGGSLKLSCAASGFTFSTYTMSWVRQTPEKRLEWVAYISYGGGSTSYPDTVKGRFTISRDNAKNTLYLQMSSLKSEDTAIYYCTRHVTVVENSMDYWGQGTSVTVSS
VL: DILLTQSPDILSVSPGERVSFSCRASQSIGTSIHWYQQRTNGSPRLLIKYVSESFSGTPSRFSGSGSGTAFTLTINSVESEDIADYYCQQTHSWPWTFGGGTKLEIK
notes: also called chimeric antibody c97A3C2H4
